{"source": "patent US5874308A", "about": "“Compositions and methods for modulating cell proliferation using growth factor-polysaccharide binding fusion proteins” (priority 1996, dated 1999)", "key": {"[1]": {"molecular_target": "T1, N1 (CBDN1) (Cellulomonas fimi, UniProt P14090)", "T1 construct": "leader (signal) peptide of C. fimi exoglucanase Cex (N); made in house; host or cells: E. coli JM101 (pTugKN1), purified from culture supernatant", "T1 sequence (P14090 33-184)": "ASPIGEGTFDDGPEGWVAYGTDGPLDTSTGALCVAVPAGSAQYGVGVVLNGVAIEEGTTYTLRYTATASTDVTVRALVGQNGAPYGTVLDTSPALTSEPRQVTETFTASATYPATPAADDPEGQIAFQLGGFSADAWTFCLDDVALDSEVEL", "test": "N1 binding constants by NMR", "conditions": "35° C.; read-out: NMR Ka (converted)"}, "[2]": {"molecular_target": "T2, CBDN1 (Cellulomonas fimi, UniProt P14090)", "T2 construct": "leader (signal) peptide of C. fimi exoglucanase Cex (N); made in house; host or cells: E. coli JM101 (pTugKN1), purified from culture supernatant", "T2 sequence (P14090 33-184)": "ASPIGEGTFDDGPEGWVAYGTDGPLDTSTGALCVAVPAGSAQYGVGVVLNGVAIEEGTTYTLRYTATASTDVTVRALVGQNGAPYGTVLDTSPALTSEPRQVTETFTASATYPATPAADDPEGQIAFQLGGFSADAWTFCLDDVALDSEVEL", "test": "Isothermal titration microcalorimetry of oligosaccharide binding to CBDN1", "conditions": "35° C.; for Kd: 50-mM PBS, pH 7, read-out: Isothermal Titration Microcalorimetry Ka (converted)", "description": "Microcalorimetry was used to measure binding thermodynamics for CBDN1 to a wide range of water-soluble oligosaccharides with the aim of identifying a set of suitable ligands for the affinity partition system. […] For both oligosaccharides, CBDN1 binding is as tight or even tighter than nearly all PEG-based affinity ligands (e.g., Cibacron blue-PEG, Procion red-PEG, dinitrophenyl-PEG, diacetic acid-PEG) currently in use in affinity partition systems."}, "[3]": {"tested_on": "SLF dependent bone marrow cell line B6SUtA1", "test": "MTT proliferation assay of SLF-CBD in solution or bound to BMCC", "format": "cell-based", "conditions": "for effect of presence of BMCC on activity: protein concentration varied; for distribution of activity between BMCC and supernatant: bound to 1 μg/ml BMCC, matrix removed by centrifugation and resuspended; for potency when immobilized on cellulose vs in solution (maximum proliferative response, specific activity): immobilized on cellulose (BMCC); for distribution of activity between BMCC and supernatant after Factor Xa cleavage: 1 μg/ml BMCC, Factor Xa added; for proliferative activity in solution (MTT), compared with control SLF: non-immobilized, absence of an immobilization matrix", "experimental": "Samples of purified SLF-CBD were diluted in H-SFM. […] In experiments where BMCC was used, 50 μl of a BMCC suspension in H-SFM was added to each well, and in experiments where no BMCC was used 50 μl of H-SFM alone was added.\nStatistical analysis of data was carried out with regression curve fitting in two iterations using non-linear regression analysis from the GraFit version 3.0 statistical analysis program (Erithacus Software Ltd., Staines, U.K.)."}, "[4]": {"test": "Binding of SLF-CBD to Avicel cellulose during purification", "conditions": "affinity chromatography on Avicel", "experimental": "The plasmid pSLF/CBD 1.0 was transformed into E. coli JM101 (Yanisch-Perronet al. (1985) Gene 33: 103-119) for expression. Several colonies were scraped from a plate and used to inoculate a 5 ml test tube of Terrific Broth (Tartof and Hobbs, Bethesda Res. Lab. Focus 9: 12) containing […] kanamycin. This tube was incubated with shaking at 37° C. for four hours and then used to inoculate four flasks containing 500 ml of the same medium at 0.2% volume. These flasks were then incubated at 37° C. with shaking at 250 rpm until a cell culture optical density (OD550) […]. The cells were then induced by the addition of 0.1 mM IPTG and shifted to 30° C. with shaking at 100 rpm for a further eight hours. Cells were then harvested and the periplasmic proteins isolated by osmotic shock (Neu and Heppel (1965) J. Biol. Chem. 240: 3685-3692). Five mg of Avicel microcrystalline cellulose (FMC International, Cork, Ireland) was added to either 10 ml of culture supernatant or 1 ml of periplasmic extract and then removed by centrifugation. SDS-PAGE loading buffer was than added to the Avicel, which was then boiled for two minutes and loaded directly onto a gel for SDS-PAGE analysis (Laemmli, supra.) (FIG. 8A)."}, "[5]": {"tested_on": "B6SUtA cells", "test": "Activity of SLF-CBD bound to regenerated cellulose coated microtiter plates (MTT)", "format": "cell-based", "experimental": "A 1% (w/v) solution of cellulose acetate was prepared by adding one gram of cellulose acetate (Kodak Inc.) to 99 ml of acetic acid. One hundred μl of this solution was added to each well of the standard 96 well tissue culture plates used above, and the acetic acid allowed to evaporate. One hundred μl of 50 mM NaOH was then added to each well and left for 20 minutes to regenerate a cellulose surface. The NaOH was then poured out, and the wells rinsed three times with PBS. Three hundred μl of 70% (v/v) ethanol was then added to each well, the plate lid replaced, and the ethanol allowed to evaporate as a sterilization step.\nActivity tests were carried out as previously described except that a cellulose acetate derived surface was used to immobilize SLF/CBD instead of BMCC. Twenty μl protein test samples were put into cellulose coated wells. […] Activity was measured after 48 h of culture using the […] with data points collected in quadruplicate. […]\nNon-tagged SLF was used as a control. In one set of control experiments, SLF was added to cellulose coated tissue culture wells as before, the surface was seeded with fresh cells three times, and the proliferation measured. […] These surfaces were seeded with cells three times and the activity measured."}, "[6]": {"conditions": "BMCC fixed at 1 μg/ml or 14 μg/ml"}}, "note": "“Also recorded” adds a separate entry of the source.", "data": [{"molecule": "OC[C@H]1O[C@@H](O[C@H]2[C@H](O)[C@@H](O)[C@H](O[C@H]3[C@H](O)[C@@H](O)C(O)O[C@@H]3CO)O[C@@H]2CO)[C@H](O)[C@@H](O)[C@@H]1O", "note": "(stereo partly shown) [Cellotriose]", "values": [{"measurement": "Kd", "setting": "[1]", "result": 5560, "unit": "µM"}]}, {"molecule": "OC[C@H]1O[C@@H](O[C@H]2[C@H](O)[C@@H](O)[C@H](O[C@H]3[C@H](O)[C@@H](O)[C@H](O[C@H]4[C@H](O)[C@@H](O)[C@H](O[C@H]5[C@H](O)[C@@H](O)C(O)O[C@@H]5CO)O[C@@H]4CO)O[C@@H]3CO)O[C@@H]2CO)[C@H](O)[C@@H](O)[C@@H]1O", "note": "(stereo partly shown) [Cellopentaose]", "values": [{"measurement": "Isothermal Titration Microcalorimetry -TΔS°", "setting": "[2]", "result": "0.86 ± 0.1", "unit": "kcal/mol"}, {"measurement": "Isothermal Titration Microcalorimetry ΔH°", "setting": "[2]", "result": "-6.8 ± 0.2", "unit": "kcal/mol"}, {"measurement": "Kd", "setting": "[2]", "result": 0.0559, "unit": "mM"}, {"measurement": "Kd", "setting": "[1]", "result": 29.4, "unit": "µM"}]}, {"molecule": "OC[C@H]1O[C@@H](O[C@H]2[C@H](O)[C@@H](O)[C@H](O[C@H]3[C@H](O)[C@@H](O)[C@H](O[C@H]4[C@H](O)[C@@H](O)[C@H](O[C@H]5[C@H](O)[C@@H](O)[C@H](O[C@H]6[C@H](O)[C@@H](O)C(O)O[C@@H]6CO)O[C@@H]5CO)O[C@@H]4CO)O[C@@H]3CO)O[C@@H]2CO)[C@H](O)[C@@H](O)[C@@H]1O", "note": "(stereo partly shown) [Cellohexaose]", "values": [{"measurement": "Isothermal Titration Microcalorimetry -TΔS°", "setting": "[2]", "result": "0.79 ± 0.1", "unit": "kcal/mol"}, {"measurement": "Isothermal Titration Microcalorimetry ΔH°", "setting": "[2]", "result": "-6.9 ± 0.2", "unit": "kcal/mol"}, {"measurement": "Kd", "setting": "[2]", "result": 0.0397, "unit": "mM"}, {"measurement": "Kd", "setting": "[1]", "result": 19.6, "unit": "µM"}]}, {"molecule": "OC[C@H]1O[C@@H](O[C@H]2[C@H](O)[C@@H](O)[C@H](O[C@H]3[C@H](O)[C@@H](O)[C@H](O[C@H]4[C@H](O)[C@@H](O)C(O)O[C@@H]4CO)O[C@@H]3CO)O[C@@H]2CO)[C@H](O)[C@@H](O)[C@@H]1O", "note": "(stereo partly shown) [Cellotetraose]", "values": [{"measurement": "Isothermal Titration Microcalorimetry -TΔS°", "setting": "[2]", "result": "1.4 ± 0.1", "unit": "kcal/mol"}, {"measurement": "Isothermal Titration Microcalorimetry ΔH°", "setting": "[2]", "result": "-6.4 ± 0.2", "unit": "kcal/mol"}, {"measurement": "Kd", "setting": "[2]", "result": 0.244, "unit": "mM"}, {"measurement": "Kd", "setting": "[1]", "result": 238, "unit": "µM"}]}, {"molecule": "control SLF: recombinant extracellular domain of murine steel factor without affinity tag (R&D systems), positive control (protein) KEICGNPVTDNVKDITKLVANLPNDYMITLNYVAGMDVLPSHCWLRDMVIQLSLSLTTLLDKFSNISEGLSNYSIIDKLGKIVDDLVLCMEENAPKNIKESPKRPETRSFTPEEFFSIFNRSIDAFKDFMVASDTSDCVLSSTLGPEKDSRVSVTKPFMLPPVAASSLRNDSSSSNRKAAKAPEDSGLQ", "values": [{"measurement": "effect of presence of BMCC on activity", "setting": "[3]; [6]", "result": "no effect"}, {"measurement": "distribution of activity between BMCC and supernatant", "setting": "[3]", "result": "most of the activity was in the supernatant"}, {"measurement": "distribution of activity between BMCC and supernatant", "setting": "[3]; listed as non-tagged SLF control", "result": "most of the activity was associated with the supematant"}, {"measurement": "potency when immobilized on cellulose vs in solution (maximum proliferative response, specific activity)", "setting": "[3]", "result": "not observed"}]}, {"molecule": "SLF-CBD: fusion protein: extracellular domain of murine steel factor linked to the cellulose binding domain of Cellulomonas fimi exoglucanase Cex (protein) KEICGNPVTDNVKDITKLVANLPNDYMITLNYVAGMDVLPSHCWLRDMVIQLSLSLTTLLDKFSNISEGLSNYSIIDKLGKIVDDLVLCMEENAPKNIKESPKRPETRSFTPEEFFSIFNRSIDAFKDFMVASDTSDCVLSSTLGPEKDSRVSVTKPFMLPPVAASSLRNDSSSSNRKAAKAPEDSGLQPTPTPTTPTPTPTTPTPTPTSGPAGCQVLWGVNQWNTGFTANVTVKNTSSAPVDGWTLTFSFPSGQQVTQAWSSTVTQSGSAVTVRNAPWNGSIPAGGTAQFGFNGSHTGTNAAPTAFSLNGTPCTVG", "values": [{"measurement": "binding of the fusion protein to cellulose", "setting": "[4]", "result": "strong and difficult to reverse"}, {"measurement": "fraction bound to reconstituted cellulose surface (activity on plate vs supernatant)", "setting": "[5]; cellulose coated microtiter plate", "result": "essentially all"}, {"measurement": "proliferative activity after repeated use of the same surface", "setting": "[5]; three consecutive rounds of 48 h cell culture", "result": "no loss in proliferative activity; also recorded: no loss of proliferative activity; also recorded: without loss of growth-stimulating activity"}, {"measurement": "neutralization of activity by anti-SLF neutralizing polyclonal antibodies", "setting": "[3]; 0.6 nM SLF-CBD, in solution", "result": "neutralized"}, {"measurement": "distribution of activity between BMCC and supernatant after Factor Xa cleavage", "setting": "[3]", "result": "the bulk of the activity was found in the supernatant"}, {"measurement": "distribution of activity between BMCC and supernatant after Factor Xa cleavage", "setting": "[3]; listed as SLF/CBD", "result": "the activity was no longer associated with the BMCC"}, {"measurement": "SLF-CBD concentration at maximum stimulatory activity", "setting": "[3]; BMCC constant at 1 μg/ml (1.22 cm^2/ml)", "result": "about 2000 pM"}, {"measurement": "ED50 (protein concentration for half maximal response) in presence vs absence of BMCC", "setting": "[3]; [6]", "result": "decrease"}, {"measurement": "total cell proliferation in presence vs absence of BMCC", "setting": "[3]; [6]", "result": "increase"}, {"measurement": "effect of presence of BMCC on activity", "setting": "[3]; [6]", "result": "clearly more active in the presence of BMCC"}, {"measurement": "BMCC concentration at maximum activity", "setting": "[3]; SLF-CBD held constant at 1500 pM, BMCC varied", "result": 44, "unit": "µg/mL"}, {"measurement": "distribution of activity between BMCC and supernatant", "setting": "[3]", "result": "the bulk of the activity was associated with the BMCC; also recorded: most of the activity was associated with the BMCC particles"}, {"measurement": "potency when immobilized on cellulose vs in solution (maximum proliferative response, specific activity)", "setting": "[3]", "result": "significantly more potent; also recorded: to a greater extent than non-immobilized steel factor"}, {"measurement": "proliferative activity in solution (MTT), compared with control SLF", "setting": "[3]", "result": "similar"}, {"measurement": "ED50 of soluble fusion protein vs control protein", "setting": "[3]; soluble form", "result": "identical"}, {"measurement": "maximum cell density generated vs control protein", "setting": "[3]; soluble form", "result": "not quite as great"}]}, {"molecule": "CBD: recombinant cellulose binding domain of Cex, negative control (protein) SGPAGCQVLWGVNQWNTGFTANVTVKNTSSAPVDGWTLTFSFPSGQQVTQAWSSTVTQSGSAVTVRNAPWNGSIPAGGTAQFGFNGSHTGTNAAPTAFSLNGTPCTVG", "values": [{"measurement": "proliferative activity in solution (MTT), compared with control SLF", "setting": "[3]", "result": "did not stimulate the proliferation"}]}]}
